Where a chain is given by its changes, count along the chain named. One block for each binder: values may come before it.
Target: T1, GST-GUS (UniProt P05804 1-603, limits assumed)
T1 construct: Negative control bait; also called GST-tagged beta-glucuronidase; negative control GST-GUS; not shown: GST tag
Test: in vitro GST pull-down on glutathione sepharose beads, immunoblot for GST and FLAG
Method: E. coli expressed GST-tagged bait proteins were incubated with E. coli expressed FLAG-tagged prey proteins before purification on glutathione sepharose beads and immunoblotting for GST and FLAG.
Following this growth phase, the cultures were centrifuged at 4500×g for 10 minutes, the supernatants were discarded and the pellets resuspended at 4° C. in 2.5 ml TGH Buffer (50 mM HEPES (pH7.5), 150 mM NaCl, 1% Triton-X-100, 10% Glycerol, 1 mM DTT, 1 complete EDTA-free protease inhibitor tablet (per 50 ml) (Roche 11873580001)). The bacterial suspension was then sonicated (on ice) for four bursts of ten seconds, separated by 20-second intervals, before being centrifuged at 12 000×g for 20 minutes to pellet any cellular debris. Cleared sonicates were then stored on ice while a 50% slurry of washed glutathione sepharose beads (GE Life Sciences 17-0756-01) was prepared according to the manufacturer's instructions. 20 μl of the 50% glutathione sepharose slurry was then combined with 2.5 ml of protein extract from bait protein (GST-tagged) expressing cells and 2.5 ml of protein extract from prey protein (HA-/FLAG-/HIS-tagged) expressing cells. […] After washing, proteins were eluted with 35 μl GST-elution buffer (50 mM TRIS-glycine (pH8.0), 10 mM reduced glutathione) over 30 minutes at 4° C. before being analysed by western blot analysis. […]

T1 sequence (P05804 whole entry): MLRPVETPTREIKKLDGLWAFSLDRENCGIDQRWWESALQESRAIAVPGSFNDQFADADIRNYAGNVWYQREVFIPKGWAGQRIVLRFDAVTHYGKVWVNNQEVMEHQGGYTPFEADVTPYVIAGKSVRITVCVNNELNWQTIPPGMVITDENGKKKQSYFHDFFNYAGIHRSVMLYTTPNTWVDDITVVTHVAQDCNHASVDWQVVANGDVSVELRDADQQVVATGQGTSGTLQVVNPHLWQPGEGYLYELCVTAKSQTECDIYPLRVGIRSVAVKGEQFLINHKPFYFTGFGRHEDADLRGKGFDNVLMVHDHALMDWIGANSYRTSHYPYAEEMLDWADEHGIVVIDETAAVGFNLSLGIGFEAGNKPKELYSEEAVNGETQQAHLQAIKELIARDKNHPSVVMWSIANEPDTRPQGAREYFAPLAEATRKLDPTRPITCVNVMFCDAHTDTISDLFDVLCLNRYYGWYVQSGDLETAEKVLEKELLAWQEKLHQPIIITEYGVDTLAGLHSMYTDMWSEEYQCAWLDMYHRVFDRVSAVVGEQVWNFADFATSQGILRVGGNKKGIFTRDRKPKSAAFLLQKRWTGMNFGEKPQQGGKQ

binding result: no binding
B1: FLAG-DA1 (other)
chain: MGWFNKIFKGSNQRLRVGNNKHNHNVYYDNYPTASHDDEPSAADTDADNDEPHHTQEPSTSEDNTSNDQENEDIDRAIALSLLEENQEQTSISGKYSMPVDEDEQLARALQESMVVGNSPRHKSGSTYDNGNAYGAGDLYGNGHMYGGGNVYANGDIYYPRPITFQMDFRICAGCNMEIGHGRFLNCLNSLWHPECFRCYGCSQPISEYEFSTSGNYPFHKACYRERYHPKCDVCSHFIPTNHAGLIEYRAHPFWVQKYCPSHEHDATPRCCSCERMEPRNTRYVELNDGRKLCLECLDSAVMDTMQCQPLYLQIQNFYEGLNMKVEQEVPLLLVERQALNEAREGEKNGHYHMPETRGLCLSEEQTVSTVRKRSKHGTGKWAGNITEPYKLTRQCEVTAILILFGLPRLLTGSILAHEMMHAWMRLKGFRTLSQDVEEGICQVMAHKWLDAELAAGSTNSNAASSSSSSQGLKKGPRSQYERKLGEFFKHQIESDASPVYGDGFRAGRLAVHKYGLRKTLEHIQMTGRFPV
notes: E. coli expressed prey protein; also called FLAG-tagged wild-type DA1; AtDA1; not shown: FLAG tag

binding result: no binding
B2: FLAG-da1lim8 (other)
chain: B1 chain with C172G, C175G, C199G, C202G
notes: E. coli expressed prey protein; It is a DA1 variant with a mutated LIM domain; also called FLAG-tagged DA1lim8; not shown: FLAG tag
